{
  "source": "paper PMC5432616",
  "about": "“Oligomeric State and Thermal Stability of Apo- and Holo- Human Ornithine δ-Aminotransferase” (The Protein Journal, 2017)",
  "proteins": {"B1": {"name": "hOAT (human ornithine δ-aminotransferase) (Homo sapiens; R217A) (protein)", "chain": "TSVATKKTVQGPPTSDDIFEREYKYGAHNYHPLPVALERGKGIYLWDVEGRKYFDFLSSYSAVNQGHCHPKIVNALKSQVDKLTLTSRAFYNNVLGEYEEYITKLFNYHKVLPMNTGVEAGETACKLARKWGYTVKGIQKYKAKIVFAAGNFWGRTLSAISSSTDPTSYDGFGPFMPGFDIIPYNDLPALEAALQDPNVAAFMVEPIQGEAGVVVPDPGYLMGVRELCTRHQVLFIADEIQTGLARTGRWLAVDYENVRPDIVLLGKALSGGLYPVSAVLCDDDIMLTIKPGEHGSTYGGNPLGCRVAIAALEVLEEENLAENADKLGIILRNELMKLPSDVVTAVRGKGLLNAIVIKETKDWDAWKVCLRLRDNGLLAKPTHGDIIRFAPPLVIKEDELRESIEIINKTILSF", "notes": "untagged, pET43a, E. coli BL21(DE3)pLysS; DEAE and Superdex 200; tetramer in equilibrium with dimer, dimer is the functional unit"}},
  "key": {"[1]": {"substrate": "O=C(O)CCC(=O)C(=O)O", "assay": "purified protein", "format": "biochemical, Homo sapiens", "conditions": "co-substrate L-Orn, 60 nM enzyme, 50 mM Hepes, pH 8.0, 150 mM NaCl, 100 μM PLP, 25 °C"}, "[2]": {"substrate": "NCCC[C@H](N)C(=O)O", "assay": "purified protein", "conditions": "co-substrate α-KG, 60 nM enzyme, 50 mM Hepes, pH 8.0, 150 mM NaCl, 100 μM PLP, 25 °C"}},
  "data": [
    {"protein": "B1", "values": [
      {"measurement": "Km", "setting": "[1]", "result": "2.4 ± 0.1", "unit": "mM"},
      {"measurement": "kcat", "setting": "[1]", "result": "38.1 ± 0.3", "unit": "s⁻¹"},
      {"measurement": "Km", "setting": "[2]", "result": "5.1 ± 0.3", "unit": "mM"},
      {"measurement": "kcat", "setting": "[2]", "result": "38.4 ± 0.7", "unit": "s⁻¹"}
    ]}
  ]
}
